Molecular target: binary complex of FGFR1c ligand-binding domain with αKlotho ectodomain (murine; human) (UniProt O35082)
Experiment: SPR; immobilized FGF23, αKlotho-FGFR1c complex compared with FGFR1c ligand-binding domain alone (FIGS. 10D and 10E)

Chain of binary complex of FGFR1c ligand-binding domain with αKlotho ectodomain (murine; human) (O35082 35-982, form in doubt, chain 1 of 2): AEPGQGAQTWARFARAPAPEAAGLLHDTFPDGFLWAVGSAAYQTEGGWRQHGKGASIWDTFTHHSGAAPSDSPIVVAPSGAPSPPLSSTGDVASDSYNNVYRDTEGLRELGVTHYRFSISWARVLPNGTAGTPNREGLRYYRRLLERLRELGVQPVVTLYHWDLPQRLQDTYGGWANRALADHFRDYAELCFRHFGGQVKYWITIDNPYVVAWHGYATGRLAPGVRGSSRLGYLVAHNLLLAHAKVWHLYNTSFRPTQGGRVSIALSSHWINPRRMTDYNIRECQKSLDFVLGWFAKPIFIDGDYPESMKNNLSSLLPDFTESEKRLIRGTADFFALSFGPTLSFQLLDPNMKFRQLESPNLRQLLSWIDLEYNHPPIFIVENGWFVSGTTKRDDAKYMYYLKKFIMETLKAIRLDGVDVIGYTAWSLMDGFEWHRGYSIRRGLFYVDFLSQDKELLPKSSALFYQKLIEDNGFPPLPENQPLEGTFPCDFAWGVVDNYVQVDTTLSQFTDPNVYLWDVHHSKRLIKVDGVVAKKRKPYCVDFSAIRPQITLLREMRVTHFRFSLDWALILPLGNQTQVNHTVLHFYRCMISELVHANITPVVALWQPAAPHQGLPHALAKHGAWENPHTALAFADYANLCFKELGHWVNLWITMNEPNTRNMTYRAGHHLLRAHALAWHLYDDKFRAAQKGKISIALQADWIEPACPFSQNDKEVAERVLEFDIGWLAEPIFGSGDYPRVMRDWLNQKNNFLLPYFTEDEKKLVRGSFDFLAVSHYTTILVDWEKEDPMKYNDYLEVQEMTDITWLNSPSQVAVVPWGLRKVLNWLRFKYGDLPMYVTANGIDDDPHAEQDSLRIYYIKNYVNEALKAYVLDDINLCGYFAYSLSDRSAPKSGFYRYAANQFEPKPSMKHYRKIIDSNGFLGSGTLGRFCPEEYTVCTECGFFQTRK
Chain of binary complex of FGFR1c ligand-binding domain with αKlotho ectodomain (murine; human) (P11362 142-365, form in doubt, chain 2 of 2, further chain): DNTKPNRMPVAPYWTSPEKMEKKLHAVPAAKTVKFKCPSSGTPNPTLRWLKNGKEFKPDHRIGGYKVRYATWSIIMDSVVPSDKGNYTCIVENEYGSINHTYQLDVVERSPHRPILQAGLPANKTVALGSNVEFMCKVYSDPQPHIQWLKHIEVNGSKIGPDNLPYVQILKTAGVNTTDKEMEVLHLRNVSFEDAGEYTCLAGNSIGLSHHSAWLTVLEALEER

B1: N-terminally hexahistidine-tagged, mature form of human FGF23 (Y25 to I251), R176Q/R179Q (ligand, not shown: small tags and cut ends)
chain: YPNASPLLGSSWGGLIHLYTATARNSYHLQIHKNGHVDGAPHQTIYSALMIRSEDAGFVVITGVMSRRYLCMDFRGNIFGSHYFDPENCRFQHQTLENGYDVYHSPQYHFLVSLGRAKRAFLPGMNPPPYSQFLSRRNEIPLIHFNTPIPRQHTQSAEDDSERDPLNVLKPRARMTPAPASCSQELPSAEDNSPMASDPLGVVRGGRVNTHAGGTGPEGCRPFAKFI
B1 was tested, and the fold enhancement of affinity against FGFR1c alone was greater than 20 fold.

From US9926355
